Results on one molecule are retold here after patent US20200317753A1 (LIFEARC, published 2020).

For assay [1], the target named is T1, SP70 peptide epitope of the EV71 VP1 capsid protein (Enterovirus 71).
T1 construct: 15-amino acid peptide; residues 208-222 counted on VP1
T1 peptide: YPTFGEHKQEKDLEY
Nature of the assay: binding ELISA on SP70 peptide, antibody not incubated, OD 650 nm [top panel]. Background: ELISA stands for enzyme-linked immunosorbent assay.

The target in assay [2] is T1, SP70 peptide epitope of the EV71 VP1 …. The experiment in a line: isothermal titration calorimetry, observed KD. (In ITC the heat of successive injections is recorded.)
From the text: (§1) KD can be calculated using Gibbs free energy, enthalpy and entropy: ΔG=ΔH−TΔS and ΔG=RT In KD.
For assay [3] the target is unchanged. The experiment in a line: isothermal titration calorimetry, observed KA.
From the text: as §1
For assay [4] the target is unchanged. Nature of the assay: isothermal titration calorimetry.
Assay [5] has the same target. The experiment in a line: binding ELISA on SP70 peptide, OD 650 nm.
Method: Serial dilutions of antibody variants (starting from ˜100 −g/ml) were added to immobilised EV71-VLP or the SP70 peptide epitope, shaken for one hour at room temperature and washed with PBS-T. Anti-human kappa chain HRP was added and the incubation and washing steps were repeated. TMB/K-Blue substrate was incubated with the reaction for 5-10 minutes at room temperature before the reaction was stopped with H₂SO₄ RED STOP. The optical density was read at 450/650 nm.

B1: hEV71 HMKA (antibody, V domains shown)
VH: QVQLVQSGAEVKKPGASVKVSCTASGFNIKDTYIHWVRQAPGQRLEWIGKIDPANGNTKYDPKFQDKATITADTSANTAYMELSSLRSEDTAVYYCANSNYWFDFDYWGQGTLVTVSS
VL: DIVMTQSPLSLPVTPGEPASISCRSSQSIVHSNGNTYLEWYLQKPGQSPQLLIYKVSNRFSGVPDRFSGSGSGTDFTLKISRVEAEDVGVYYCYQGSHVPYTFGGGTKVEIK
notes: Variable domains only; pHuG1 / pHuK vectors, Expi293 cells; behaves as an IgG monomer; also called huEV71 HMKA; EVM00
In the case of B1, the EC50 (read off the curve) (as a rule, the concentration at which the effect is half-maximal) in assay [1] is ~0.8 nM. In addition, the Kd (usually the free concentration of one partner at which half of the binding sites on the other are occupied at equilibrium, for simple one-to-one binding) in assay [2] came to 38.2 nM. Besides, the Ka in assay [3] was 2.62e+07 M⁻¹. Besides, in assay [4], the ΔH is -16.5 kcal/mol and the ΔS is -21.4 cal/mol/deg. Besides, the EC50 – broadly, the midpoint of the concentration-response curve – in assay [5] is 1.15 nM.
